Assay results published in article PMC6379431 (Nature Communications, 2019).
Substitutions are numbered along the chain they refer to. Numbers in names are those of the source.

B1: mCldn3cryst P134G (domain or fragment)
chain: MSMGLEITGTSLAVLGWLCTIVCCALPMWRVSAFIGSSIITAQITWEGLWMNCVVQSTGQMQCKMYDSLLALPQDLQAARALIVVSILLAAFGLLVALVGAQATNAVQDETAKAKITIVAGVLFLLAALLTLVGVSWSANTIIRDFYNPLVPEAQKREMGAGLYVGWAAAALQLLGGALLAA
notes: also called P134G mutant; source: Sf9 insect cells (baculovirus), purified (as mCldn3cryst)
B2: mCldn3cryst P134A (domain or fragment)
chain: B1 chain with G134A
notes: also called P134A mutant; source: Sf9 insect cells (baculovirus), purified (as mCldn3cryst)

Target: the molecule itself
Experiment: crystal structure

Protein | binding result
B1 | binds
B2 | binds
